Experiments:
[1] = biological target: lectin-purified insulin receptor (isoform B) (UniProt P06213); test: receptor-binding assay with lectin-purified insulin receptor
[2] = size-exclusion chromatography, zinc- and phenol-free (self-association control)

Trp^B26, Orn^B29 insulin analogue (ligand)
affinity relative to human insulin [1]: 50%

Lys^B28, Pro^B29 (Lispro) insulin
molecular weight by SEC [2]: The molecular weight (MW; or molecular mass) of the species was 3.1 kDa
